Results published in patent US9724426B2, “Agents, uses and methods” (AFFINICON APS, priority 2009, dated 2017).
Blank lines part the entries; values can stand above or below the molecule they belong to.

Tests used:
[1] = test system: collagen-induced arthritis
Method: The effect of dexamethasone on arthritis development in the rat CIA model was tested at three dosages (0.01, 0.1 and 1 mg/kg). Dexamethasone was administered intravenously on day 10 (day of disease onset), 13, 16 and 19. Dexamethasone conjugate produced as described in Example 5 was tested at 0.01 mg/kg using the same treatment regimen as for dexamethasone. Treatment with vehicle (PBS/2.5% EtOH) served as negative control. Rats were sacrificed 21 days after immunization.
Collagen arthritis was induced in 9 weeks old female Lewis rats using a two-step immunization protocol. […]
Rats were evaluated 6 times per week (once during weekends) for arthritis severity using a macroscopic scoring system of 0-4 for each paw as detailed below: • 0=no signs of arthritis • 0.5=unloading of the paw and/or light redness of ankle joint • 1=redness and mild swelling of the ankle joint • 2=redness and swelling of paw • 3=severe redness and swelling of entire paw including digits • 4=maximally swollen paw, often involvement of multiple joints and extending towards knee joint.
The total clinical score of an individual rat is defined as the sum of the clinical scores of all four paws for each day. At the end of the study, the cumulative arthritis score was calculated for each rat. […]
The swelling of the hind paws was measured during weekdays with a laser scan micrometer (Mitutoyo, LSM-503S/6200). […]

[2] = test system: LPS mediated TNFα stimulation; assay: Rat in vivo LPS model; parameters: species or system Lewis rats; details: i.v., challenged with LPS; 2 hours post LPS
[3] = molecular target: T1, CD163 (Homo sapiens, UniProt Q86VB7); assay: scFv ELISA; format: binding; details: two-fold dilution series
Method: A nunc Maxisorp ELISA plate (NUNC, Roskilde, Denmark) was coated with 50 μl/well of 2 μg/ml of CD163 (purified as described in (2)) over night at 4° C. The coated plate was washed 3 times in PBS and blocked for 1 hour with 3% BSA in PBS. Fractions from scFv purification were tested by adding 100 μl/well of a 1:10 dilution of each sample in 1% BSA, PBS. The refolded protein sample was added directly to the wells (100 μl/well) and two-fold dilution series was made with dilution in 1% BSA in PBS. After 1 hour incubation at 4° C. the plate was washed 3 times in PBS again. Secondary detection was made with a 1 hour incubation of a HRP conjugated anti-His antibody (Sigma-Aldrich, Brøondby, Denmark) (1:4000 diluted in 1% BSA, PBS). After washing 3 times in PBS the ELISA was developed with […] TMB substrate (Invitrogen, Taastrup, Denmark). The reaction was stopped with 40 μl/well of 1 M H2SO4 and the plate was read in an ELISA reader at 450 nm.

[4] = molecular target: T1, CD163; assay: ELISA antibody reactivity comparison; format: binding
Method: A nunc maxisorp plate was coated with the following (50 μl/well) over night at 4° C.: 4 μg/ml goat anti-human kappa chain antibody (AbD Serotec, Oxford, UK) and ˜4 μg/ml human CD163 (purified as described in 8). Buffer was carbonate buffer, pH 9.0. Each measurement was made in duplicate.
4) After blocking, the primary antibody was added (100 μl per well).
For CD163 ELISA • 100 μl/well of goat anti human IgG (H&L) HRP 1:6000 in PBS containing 1% BSA. • For Mac2-158 goat anti-mouse HRP 1:2000 in PBS containing 1% BSA is added to the wells 7) Step 1 was repeated 8) The ELISA was developed by adding 75 μl of TMB substrate to each well. Incubation was performed for 3 min. 9) The reaction was stopped by adding 30 μl 2 NH2SO4 to the wells. 10) The plate was read in an ELISA reader at 450 nm.
Background was measured on wells with no coating and wells with no primary antibody.

[5] = molecular target: T1, CD163; assay: Fab fragment activity measured by ELISA; format: binding
Method: A nunc maxisorp plate was coated with ˜1 μg/ml human CD163 (purified as described by Kristiansen, M. et al. ((2001). Identification of the haemoglobin scavenger receptor. Nature 11:409(6817): 198-201)) was added at 50 μl/well and incubated over night at 4° C. Buffer for coating was carbonate, pH 9.0. Each measurement was made in duplicates.
The primary antibody samples used in ELISA was undiluted supernatant or 30 times concentrated supernatant from transfected cells or antibody standard 100 ng/ml KN2/NRY antibody diluted in PBS containing 1% BSA. The supernatant was concentrated on VIVAspin centrifugal concentrator (10.000 MWCO) (Sigma-Aldrich, Brøondby, Denmark).
The ELISA steps were as follows: ELISA plates were washed 3 times in PBS and blocked with PBS containing 3% BSA for 1 h. After blocking the primary antibody samples were added to the wells (100 μl/well). 2 fold dilution series were made on all samples and standards (dilutions in PBS containing 1% BSA). The samples were incubated on the plates for 1 h. Subsequently, the plates were washed 3 times in PBS and secondary antibody goat anti human kappa chain HRP (AbD Serotec, Oxford, UK) 1:4000 in PBS containing 1% BSA (100 μl/well) was added to the wells. […] The plates were read in an ELISA reader at 450 nm.
Background was measured on both wells with no coating and wells with no primary antibody.

T1 sequence (Q86VB7 42-1156): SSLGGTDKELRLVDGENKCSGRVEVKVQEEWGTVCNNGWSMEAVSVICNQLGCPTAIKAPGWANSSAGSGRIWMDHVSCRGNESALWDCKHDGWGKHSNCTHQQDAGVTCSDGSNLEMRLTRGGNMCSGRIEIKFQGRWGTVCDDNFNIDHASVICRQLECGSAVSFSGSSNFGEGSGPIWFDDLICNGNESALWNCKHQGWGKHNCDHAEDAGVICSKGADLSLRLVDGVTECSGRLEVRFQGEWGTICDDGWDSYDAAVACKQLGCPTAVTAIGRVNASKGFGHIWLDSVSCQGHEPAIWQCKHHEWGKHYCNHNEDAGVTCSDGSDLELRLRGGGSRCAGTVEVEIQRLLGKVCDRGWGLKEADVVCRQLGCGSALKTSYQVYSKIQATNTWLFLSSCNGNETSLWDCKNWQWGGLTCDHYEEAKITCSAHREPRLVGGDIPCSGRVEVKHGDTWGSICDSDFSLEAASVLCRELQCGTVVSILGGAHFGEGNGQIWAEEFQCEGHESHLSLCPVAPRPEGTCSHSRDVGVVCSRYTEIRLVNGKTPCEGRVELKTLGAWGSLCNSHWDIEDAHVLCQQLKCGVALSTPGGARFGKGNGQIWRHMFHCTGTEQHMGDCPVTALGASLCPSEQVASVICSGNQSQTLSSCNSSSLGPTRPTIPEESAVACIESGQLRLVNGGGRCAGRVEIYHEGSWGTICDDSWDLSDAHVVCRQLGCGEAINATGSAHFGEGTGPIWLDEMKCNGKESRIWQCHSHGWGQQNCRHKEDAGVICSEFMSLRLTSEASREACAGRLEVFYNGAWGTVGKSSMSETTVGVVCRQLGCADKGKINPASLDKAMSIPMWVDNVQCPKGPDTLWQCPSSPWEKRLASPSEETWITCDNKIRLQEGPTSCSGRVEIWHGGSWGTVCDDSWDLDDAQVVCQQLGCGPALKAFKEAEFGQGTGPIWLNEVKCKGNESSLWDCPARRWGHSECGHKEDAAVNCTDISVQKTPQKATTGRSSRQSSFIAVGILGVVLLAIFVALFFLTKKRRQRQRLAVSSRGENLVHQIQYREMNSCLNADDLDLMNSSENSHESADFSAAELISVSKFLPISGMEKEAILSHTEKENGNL

- spleen and liver weights compared to the vehicle group ([1]; 0.01, 0.1 and 1 mg/kg groups): No significant differences
- thymus weight compared to the vehicle group ([1]; 0.1 and 1 mg/kg groups, at sacrifice day 21): significantly decreased
Molecule: C[C@@H]1C[C@H]2[C@@H]3CCC4=CC(=O)C=C[C@]4(C)[C@@]3(F)[C@@H](O)C[C@]2(C)[C@@]1(O)C(=O)CO [dexamethasone]

Molecule: CC1(C)O[C@@H]2C[C@H]3[C@@H]4C[C@H](F)C5=CC(=O)C=C[C@]5(C)[C@@]4(F)[C@@H](O)C[C@]3(C)[C@]2(C(=O)CO)O1 [fluocinolone, Fluocinolone acetonide]
- TNFα level, lower compared to vehicle [2]: 5 times

- dilution down to which signals were detected [3]: 128 fold
B1: scFv: scFv (VH-15 residue linker-VL), SEQ ID NO: 77, expressed in E. coli and refolded (protein)
scFv: MDQVQLQESGPGLVKPSETLSLTCTVSGYSITSDYAWNWIRQFPGNKLEWMGYITYSGSTYYNPSLKSRVTISVDTSKNQFSLKLSSVTAADTATYYCVSGTYYFDYWGQGTTLTVSSGGGGSGGGGSGGGGSDIVMTQSPSSLSASVGDRVTITCRASQSVSSDVAWFQQKPGKSPKPLIYYASNRYSGVPSRFSGSGSGTDFTLTISSLQAEDFAVYFCGQDYTSPRTFGGGTKLEIKREQKLISEEDL
modifications: scFv sequence

- amount of antibody in sample to obtain the same reactivity as cgamma(6)/NRY [4]: approximately twice as much antibody
- reactivity towards CD163 in ELISA ([4]; supernatant from transiently transfected CHO-S cells): almost identical
B2: cgamma(6)/K8: chimeric heavy chain cgamma(6) paired with humanized light chain K8 (antibody)
VH: DVQLQESGPGLVKPSQSLSLTCTVTGYSITSDYAWNWIRQFPGNKLEWMGYITYSGITNYNPSLKSQISITRDTSKNQFFLQLNSVTTEDTATYYCVSGTYYFDYWGQGTTLTVSS
light: DIVMTQSPSSLSASVGDRVTITCRASQSVSSDVAWFQQKPGKSPKPLIYYASSLQSGVPSRFSGSGSGTDFTLTISSLQAEDFAVYFCGQDYTSPRTFGGGTKLEIKRTVAAPSVFIFPPSDEQLKSGTASVVCLLNNFYPREAKVQWKVDNALQSGNSQESVTEQDSKDSTYSLSSTLTLSKADYEKHKVYACEVTHQGLSSPVTKSFNRGEC

- ELISA signal ([5]; undiluted, non-concentrated supernatant): very small signal
B3: Fab fragment: Fab of KN2/NRY: heavy chain KN2 with P220 mutated to stop, SEQ ID NO: 82, with light chain NRY (antibody)
heavy: QVQLQESGPGLVKPSETLSLTCTVSGYSITSDYAWNWIRQFPGNKLEWMGYITYSGSTYYNPSLKSRVTISVDTSKNQFSLKLSSVTAADTATYYCVSGTYYFDYWGQGTTLTVSSASTKGPSVFPLAPCSRSTSESTAALGCLVKDYFPEPVTVSWNSGALTSGVHTFPAVLQSSGLYSLSSVVTVPSSSLGTKTYTCNVDHKPSNTKVDKRVESKYG
light: DIVMTQSPSSLSASVGDRVTITCRASQSVSSDVAWFQQKPGKSPKPLIYYASNRYSGVPSRFSGSGSGTDFTLTISSLQAEDFAVYFCGQDYTSPRTFGGGTKLEIKRTVAAPSVFIFPPSDEQLKSGTASVVCLLNNFYPREAKVQWKVDNALQSGNSQESVTEQDSKDSTYSLSSTLTLSKADYEKHKVYACEVTHQGLSSPVTKSFNRGEC
- ELISA signal and dilution series ([5]; 30× concentrated supernatant, standard 100 ng/ml KN2/NRY): comparable to the standard dilution series
